Laboratory results: article PMC4213368, “Elucidation of a protein-protein interaction network involved in Corynebacterium glutamicum cell wall biosynthesis as determined by bacterial two-hybrid analysis” (Glycoconjugate Journal, 2014)
“And” between values parts separate entries of the source, which are not always exact repeats. Identical values can stand only once.

Experiments:
Test in all cases: two-hybrid; BACTH in E. coli BTH101, same co-transformants; β-galactosidase activity in Miller units, mean of 3 independent assays; negative control with empty vectors 86 ± 11 Miller units
[1] = target: DprE2 (Corynebacterium glutamicum ATCC 13032)
[2] = target: AftB (Corynebacterium glutamicum ATCC 13032) (UniProt Q8NLR0)
[3] = target: AftA (Corynebacterium glutamicum ATCC 13032) (UniProt Q8NTW4)
[4] = target: AftC (Corynebacterium glutamicum ATCC 13032) (UniProt Q8NPB7)
[5] = target: UbiA (Corynebacterium glutamicum ATCC 13032)
[6] = target: WecA (Corynebacterium glutamicum ATCC 13032)
[7] = target: Emb (Corynebacterium glutamicum ATCC 13032)
[8] = target: the molecule itself

## DprE1 (enzyme)
[1]
  β-galactosidase activity: 637 Miller units and 1030 Miller units

## UbiA (enzyme)
[2]
  β-galactosidase activity: 1020 Miller units
[3]
  β-galactosidase activity: 387 Miller units
[4]
  β-galactosidase activity: 755 Miller units

## WbbL (enzyme)
[5]
  β-galactosidase activity: 1090 Miller units and 1200 Miller units

## WecA (enzyme)
[2]
  β-galactosidase activity: 1080 Miller units
[6]
  β-galactosidase activity: 487 Miller units
[5]
  β-galactosidase activity: 1020 Miller units
[7]
  β-galactosidase activity: 1350 Miller units
[4]
  β-galactosidase activity: 1050 Miller units

B1: AftA (enzyme, Corynebacterium glutamicum ATCC 13032, UniProt Q8NTW4 1-661, looked up)
chain: MNPYGPSRVPEGEVYRPDRLNRKATLVAIVGAAILAFAFALVLWMGLKQTNLPAFGPSNVTRAVASATIAAVLIVTGFLTWLWLRDEHQSNPRWELEDVKPRPKWRTALTYLASYLSPAALVVAVLAIPLSATRLYLDGISVDQGFRTQFLTRMADDIGLSDMNYIDMPTFYPAGWFWLGGRLANLLGLPGWEAFQPWAIVSMAVAASVLVPVWQRITGSLPVATGIALVTTCIILAMNSEEPYAAIVAMGIPAMLVLASRIAKGDKFALAGGIIYLGVSATFYTLFTGAIALSAVAVCIVVAAIVQRSIKPLLWLAVLGGGSIVIALISWGPYLLASINGAERSGDSATHYLPLEGTQFPVPFLASSVVGLLCLVGLIYLVVRFHNNEVRAMWVGIAVFYAWMGMSMAITLLGNTLLGFRLDTVLVLIFATAGVLGIADFRLASVYQLYPTQITERTATHLTNLIVVLVLLGGLYYAQDLPQKNARAIDLAYTDTDGYGERADLYPAGAARYYKDINDHLLDQGFEPSETVVLTDELDFMSYYPYRGYQAFTSHYANPLGEFGNRNAFIEDLAIRSWDELADPQQFSDALNTSPWTIPEVFIFRGSIDDPDAGWKYDVAEDLYPNNPNVRFRGVYFNPESFDQMWQTKQVGPFVVVTHNE
notes: AftA, arabinofuranosyltransferase, transmembrane, Corynebacterium glutamicum ATCC 13032; gene amplified from genomic DNA; One molecule for all four fusion forms; also called arabinofuranosyltransferase AftA; AftA-T25^N; source: E. coli BTH101, bacterial two-hybrid (BACTH) fusion; not shown: T25 or T18 fragment of Bordetella pertussis adenylate cyclase, N-terminal or C-terminal (each tested), kept
[8]
  β-galactosidase activity: 714 Miller units

B2: AftB (enzyme, Corynebacterium glutamicum ATCC 13032, UniProt Q8NLR0 1-686, looked up)
chain: MTFSPQRPEFETGKQPDPETEHAGDFFEETSSSAPRAASNGSSGPNYTLITTFLAALTAGIFAFWAGWTRKWISDDGLIVLRTVRNLLAGNGPVFNAGERVEANTSTLWQYCIYLVALVTDYRLEDIALWLALLFTTAASIIGVLGTAHLHRKRIAVLLPAGVIGYFSLSPARDFATSGLEWGLSLMWISIQWLLLVLWATSGKTSGKKASGAKTSNPIVNAGAITYALAFWSGLSWLVRPELAMYGGLTGVLLLLTAPRWRVVLGILVAALPLPAAYQIFRMGYYGLMVPHTAVAKSASDAVWGTGWEYVEDFTGPYNLWLGLALLLAAGALTVWKTDKHLAIPKGRLGLRTPGMAIALLVICALVHFLYVIRVGGDFMHGRMLLLPLFAILLPVSVIPVNVVDRGWQDLVALVLVFSTWVWSTVVFVQGHQWENTGQHVVDERDFWIDFTNRDEDHPPLYAEDFLTVDSMNDYAEVMRDQTLVNPTGQQLNILASSDPTTYSWITTPRVEGVEAGDLANLSPTVFHVNLGMTSMNAPLNVRVTDLIGLATPLAARQPRIEGGRIGHDKLMDLEWQVAESATPLAYTPGWLDTQKTYEARQALRHPELVHLFQTYREPMSYHRFVDNIKYALTTGRTLEISDNPEDLLKEFNPTPAEIQDGLETIAWPGEIKLDEPRGEPLYSSQ
notes: AftB, arabinofuranosyltransferase, transmembrane, Corynebacterium glutamicum ATCC 13032; gene amplified from genomic DNA; One molecule for all four fusion forms; also called arabinofuranosyltransferase AftB; AftB-T25^N; source: E. coli BTH101, bacterial two-hybrid (BACTH) fusion; not shown: T25 or T18 fragment of Bordetella pertussis adenylate cyclase, N-terminal or C-terminal (each tested), kept
[8]
  β-galactosidase activity: 1180 Miller units

B3: AftC (enzyme, Corynebacterium glutamicum ATCC 13032, UniProt Q8NPB7 1-418, looked up)
chain: MSFSPVAPSISAPTPRRSRWDSIGNAVAWPLAMLLMAHRFFVLAINGAVTDDFTTVYSALRRFVEGIPVYNEVYHFVDPHYLYNPGATLLLAPLGYITHFTLARWMFIAVNLLAIVLAFGLLTRLSGWALRSMVWPIAIALAMLTETVQNTLIFSNINGILLLMLAIFLWCVVHKKSWLGGLVIGLAILIKPMFLPLLFLPLVKKQWGSLILGILTPVIFNAVAWFLVPGASEYVTRTMPYLGETRDFANSSLPGLAIYFGMPTWMEITWFLIFGAMVGLAVLALLRFRNTEPYFWAATTTGVLLTGVFFLSSLGQMYYSMMIFPMIFTLLGSRSVFHNWVAWVAAYFFLSPDTFTSQRLPDVARWMEFFSATVGWGLLIVVTFVSALIWFIGDIRAKGTPSSPITTDPTHDHLERTA
notes: AftC, arabinofuranosyltransferase, transmembrane, Corynebacterium glutamicum ATCC 13032; gene amplified from genomic DNA; One molecule for all four fusion forms; also called arabinofuranosyltransferase AftC; AftC-T25^C; source: E. coli BTH101, bacterial two-hybrid (BACTH) fusion; not shown: T25 or T18 fragment of Bordetella pertussis adenylate cyclase, N-terminal or C-terminal (each tested), kept
[8]
  β-galactosidase activity: 398 Miller units
